According to the nanobody polyreactivity screen of Harvey et al. (2022):

test: yeast display, Sf9 membrane polyspecificity reagent, FACS + sequencing; frameworks hold sequencing errors
Summary of the method: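 Galactose-induced (36–48 hours) yeast carrying a synthetic nanobody display library were exposed to 10% biotinylated, detergent-solubilized Sf9 membrane reagent at 4 °C for 1 hour. FACS followed streptavidin microbead enrichment, using low and high (top ~1%) gates for expression (anti-HA) and reagent binding (streptavidin). Colony PCR, MiSeq 2 × 250 sequencing and CDR-length filtering followed. Labels for polyreactivity reflect the gate of origin.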

Sequence	polyreactivity (PSR sort gate)
QVQLVESGGGLVQAGGSLRLSCAASGRIFSFYVMGWYRQAPGKERELVAAISLSGGSTYYADSVKGRFTISRDNAMNTVYLQMNSLKPEDTAVYYCNAVLYARQRDRWARYDYWGQGTQVTVSS	high polyreactivity
QVQLVESGGGLVQAGGSLRLSCAASGRIFSGYAMGWYRQAPGKERELVAAISGGGSTNYADSVKGRFTISRDNAKNTVYLQMNSLKPEDTAVYYCATQYGHYPYWLYKYDYWGQGTQVTVSS	low polyreactivity
QVQLVESGGGLVQAGGSLRLSCAASGRIFSGYAMGWYRQAPGKERELVAAITSRSGSTYYADSVKGRFTISRDNAKNTVYLQMNSLKPEDTAVYYCAAEYVRFYWYTSAYWGQGTQVTVSS	low polyreactivity
QVQLVESGGGLVQAGGSLRLSCAASGRIFSGYVMGWYRQPPGKERELVAAISRSGGSTYYADSVKGRFTISRDNAKNTVYLQMNSLKPEDTAVYYCNADWYKRHYDYWGQGTQVTVSS	high polyreactivity
QVQLVESGGGLVQAGGSLRLSCAASGRIFSHNVMGWYRQAPGKERELVAAISWSSGSTYYADSVKGRFTISRDNAKNTVYLQMNSLKPEDTAVYYCNAATRPTGDYWGQGTQVTVSS	low polyreactivity
QVQLVESGGGLVQAGGSLRLSCAASGRIFSHYAMGWYRQAPGKERELVAAINRSGGSTYYADSVKGRFTISRDNAKNTVYLQMNSLKPEDTAVYYCAADVKYGYDWGQGTQVTVSS	high polyreactivity
QVQLVESGGGLVQAGGSLRLSCAASGRIFSINAMGWYRQAPGKERELVASISSGGSTKYADSVKGRFTISRDNAKNTVYLQMNSLKPEDTAVYYCAARGRVYRYGYWGQGTQVTVSS	high polyreactivity
QVQLVESGGGLVQAGGSLRLSCAASGRIFSIYAMGSYRQAPGKERELVAAISFRGTSTYADSVKGRFTISRDNAKNTVYLQMNSLKPEDTAVYYCAVTGFDFLWPSLGGELDYWGQGTQVTVSS	low polyreactivity
QVQLVESGGGLVQAGGSLRLSCAASGRIFSIYGMGWSRQAPGKEREFVASITYSGGSTYYADSVKGRFTISRDNAKNTVYLQMNSLQPEDTAVYYCAKYVFSAYDYWGQGTLVTVSS	low polyreactivity
QVQLVESGGGLVQAGGSLRLSCAASGRIFSKKAMGWYRQAPGKERELVARIRWTGGITYYADSVKGRFTISRDNAKNTVYLQMNSLKPEDTAVYYCAADYLWGTWTTYFRPLLYDYWGQGTQVTVSS	low polyreactivity
QVQLVESGGGLVQAGGSLRLSCAASGRIFSKNAMGCYRQQPGKERELVAAISRSGGGTYYADSVKGRFTISRDTAKNTVYLQMNSLKPEDTAVYYCATRYGSWGQGTQVTVSS	high polyreactivity
QVQLVESGGGLVQAGGSLRLSCAASGRIFSKNVRGWYRQAPGKERELVADISNTGRTYYADSVKGRFKISRDNAKNTVYLQMNSLKPEDTAVYYCAADIAYRYFAVEFSSYTGDYWGQGTQVTVSS	low polyreactivity
QVQLVESGGGLVQAGGSLRLSCAASGRIFSKYAMGWYRQAPGKERELVASIRWRGDRTYYADSVKGRFTISRDNAKNTVDLQMNSLIPEDTAVYYCAADEPGYGVGYWTYPVVPYDYWGQGTQVTVSS	low polyreactivity
QVQLVESGGGLVQAGGSLRLSCAASGRIFSLNAMGWYRQAPGNERELVAGNRKRGGSTYYADSVKGRFTISRDNAKNTLYLQMNSLKPEDTAVYYCAAQPALTYRFYYWGQGTQVTVSS	high polyreactivity
QVQLVESGGGLVQAGGSLRLSCAASGRIFSLYAMGWYRQAPGKERELVAAISRGGSTYYADSVKGRFTISRDNAKNTVYLQMNSLKPEDTAVYYCAAAPDYRAEYDYWGQGTQVTVSS	low polyreactivity
QVQLVESGGGLVQAGGSLRLSCAASGRIFSNNAIGWYRQAPGKARELVAAHSWNGGRTYYADSVKGRFTISRDNGKNTVYLQMNSLQPEDPAVYYCTKHDAQTRSFASTWYVYWGQGTQVTVSS	high polyreactivity
QVQLVESGGGLVQAGGSLRLSCAASGRIFSNNAMGWYRQAPGKERELVAAITNSGGSTYYADSVKGRFTISRDNAKNTVYLQMNSLKPEDTAVYYCAADHLSVPYDVYWTYSYWGQGTQVTVSS	low polyreactivity
QVQLVESGGGLVQAGGSLRLSCAASGRIFSNNAMGWYRQAPGKERELVASIDSGDSTTYADSVKGRFTISRDNAKNTVYLQMNSLKPEDTAVYYCNAGPAEADYDYWGQGTQVTVSS	high polyreactivity
QVQLVESGGGLVQAGGSLRLSCAASGRIFSNYAMGWYRQAPGKERELVAAITRSGGSTYYADSVKGRFTISRDNAKNTVYLQMNSLKPEDTAVYYCNTAYRRRYTYDYWGQGTQVTVSS	high polyreactivity
QVQLVESGGGLVQAGGSLRLSCAASGRIFSPNAMGWYRQAPGKERELVAVSSWRGVSTYFADSVKGRFTISRDNAKNTVYLQMNSLKPEDTAVYYCAVDNKSVYYWRQYYYWGQGTQVTVSS	high polyreactivity
QVQLVESGGGLVQAGGSLRLSCAASGRIFSPYAMGWYRQAPGKERELVAAISYDDGITYYADSVKGRFTISRDNAKNTVYLQMNCLKPEDTAVYYCAADSVTRPAGDYWGQGTQVTVSS	low polyreactivity
QVQLVESGGGLVQAGGSLRLSCAASGRIFSPYAMGWYRQAPGKERELVAAITWSGTSTSYADSVKGRFTISRDNAKNTVYLQMNRLKPEDTAVYYCNAVYRSWDRYTFYWYVSNDYWGQGTQVTVSS	low polyreactivity

Sequence	polyreactivity (PSR sort gate)
QVQLVESGGGLVQAGGSLRLSCAASGRIFSPYAMGWYRQAPGKERELVASIRGSGGSTYYADSVKGPFTISRDNAKNTVYLQMNRLKPEDTAVYYCNARNNYRFLSFGYWGQGTQVTVSS	high polyreactivity
QVQLVESGGGLVQAGGSLRLSCAASGRIFSQNAMGWYRQAPGKERELVAAISGGSTNYADSVKGRFTISRDNAKNTVYLQMNSLKPEDTAVYYCAVRWYFYHRSVEYDYWGQGTQVTVSS	low polyreactivity
QVQLVESGGGLVQAGGSLRLSCAASGRIFSQYAMGWYRQAPGKARELVAAITKSGGSTYYADSVKGRFTISRDKAKNTVYLQMNSRKPEETAVYYCAKLRSSRDYDYWGQGTQVTVSS	high polyreactivity
QVQLVESGGGLVQAGGSLRLSCAASGRIFSQYAMGWYRQAPGKERELVAAISYDDGITYYADSVKGRFTISRDNAKNTVYLQMNSLKPEDTAVYYCNADGSRRYNYWGQGTQVTVSS	low polyreactivity
QVQLVESGGGLVQAGGSLRLSCAASGRIFSRNALGWYRQAPGKERELVAAISWRGGRTYYAVSVKGRFAISRDNAKNTVYLQMNSLKPEDTAVYYCNAVSFGRARHGGPVYGYDYWGQGTQVTVSS	high polyreactivity
QVQLVESGGGLVQAGGSLRLSCAASGRIFSRNAMGWYRQAPGKERELVAAITWRGGSTYYADSVKGRFTISRDNAKNTVYLQMNSLKPEDTAVYYCNRDYRQYGYAYSGRYYWGQGTQVTVSS	high polyreactivity
QVQLVESGGGLVQAGGSLRLSCAASGRIFSRNTMGWYRQAPGKERELVAAISWRGGSTYYADSVKGRFTISRDNAKNTVYLQMNSLKPEDTAVFYCAAVVRSPAYDYWGQGTQVSVSS	high polyreactivity
QVQLVESGGGLVQAGGSLRLSCAASGRIFSRYAMGGYRQAPGKERELVAAIRYSGGRTYYADSVKGRFTISRDNAKNTVYLQMNSLIPEDTEVYYCAADGQWYYAPFRGGDYENDYWGQGTQVTVSS	low polyreactivity
QVQLVESGGGLVQAGGSLRLSCAASGRIFSRYAMGWYRQAPGKERELVAAITGRGGSTYYADSVKGRFTISRDNAKNTVYLQMNSLKPVDTAVYYCAVANRVTPLFLRYDYWGQGTQVTVSS	high polyreactivity
QVQLVESGGGLVQAGGSLRLSCAASGRIFSRYAMGWYRQAPGKERELVAAITWSVGSTYYADSVKGRFTISRDNAKNTVYLQMNSLKPEDTAVSYCAKLVRYYKPGYDYGGQGTQVTVSS	low polyreactivity
QVQLVESGGGLVQAGGSLRLSCAASGRIFSRYAMGWYRQAPGKERELVAAITYSGGSTYYADSVKGRFTISRDNAKNTVYLQMNSLKPEDTAVYYCNAATYGGRYYYWGQGTQVTVSS	high polyreactivity
QVQLVESGGGLVQAGGSLRLSCAASGRIFSRYVMGWYRQAPGKERELVAAITSSGGRTYYADSVKGRFTISRDNAKNTVYLQMNSLNPEDTAVYYCNNAPWWRTSSDYEYWGQGTQVTVSS	high polyreactivity
QVQLVESGGGLVQAGGSLRLSCAASGRIFSSNAMGWYRQAPGKEWELVAAITRGGSTNYADSVKGRFTISRDNAKNTDYLQMNSLKPEDTAVYYCNVDYYVFNHQGHLNYDYWGQGTQVTVSS	high polyreactivity
QVQLVESGGGLVQAGGSLRLSCAASGRIFSSNGMGWYRQAPGKERELVAAIRTDGGSTYYADSVKGRFTISRDNAKNTVYLQMNSLKPEDTAVYYCNAQGAYTDVFDVYQRQPDDYWGQGTQVTVSS	low polyreactivity
QVQLVESGGGLVQAGGSLRLSCAASGRIFSSNVMGWYRQAPGKERELVAAITSGGSTYYADSVKGRFTISRDNAKNTVYLQMNSLKPEDTAVYYCAASYWVLRYRYDYWGQGTQVTVSS	high polyreactivity
QVQLVESGGGLVQAGGSLRLSCAASGRIFSSYAMGWSRPAPGKERELVAAISSSGGNTYYADSVKGRFTISRDNAKNTVYLQMNSLKPEDTAVYYCNTRWVHRDWYDYWGQGTQVTVSS	high polyreactivity
QVQLVESGGGLVQAGGSLRLSCAASGRIFSSYAMGWYRKAPGKERELVAAISGSGGRTYYADSVKGRFTISRDNAKNTVYLQMNSLKPEDTAVYYCNARRRSPYSTGVAYDYWGQVTQVTVSS	high polyreactivity
QVQLVESGGGLVQAGGSLRLSCAASGRIFSSYAMGWYRQAPGKERELVAAISRSGARTYYADSVKGRFTISRDNAKNTVYLQMNSLKPEDTAVYYCAAVTVAGYDYWGQGTQVTVSS	high polyreactivity
QVQLVESGGGLVQAGGSLRLSCAASGRIFSSYDMGWYRQAPGKERELVAAISYSGGNTYYADSVKGRFTISRDTAKNTVYLQMNSLKPEDTAVYYCAARLPGYRYYYWGQGTQVTVSS	high polyreactivity
QVQLVESGGGLVQAGGSLRLSCAASGRIFSSYVMGWYRQAPGKERELVAAIRWSGGSTYYADSVKGRFTISRDNAKNTVYLQMNSLKPEDTAVYYCAAVVYRYYATGYGYWGQGTQVTVSS	high polyreactivity
QVQLVESGGGLVQAGGSLRLSCAASGRIFSTYAMGWYRQAPGKERELVAAITNSAGSTYYADSVKGLFTISRDNAKNTVYLQMNSLKPEDTAVYYCATGWSRISYGFDYWGQGTQVTVSS	low polyreactivity
